According to paper doi:10.1101/2024.03.31.587457, “The TTLL10 polyglycylase is stimulated by tubulin glutamylation and inhibited by polyglycylation” (bioRxiv, 2025):
Each block holds one molecule with its values, some of them ahead of it.

Legend:
[1] = target: T1, TTLL10 (Xenopus tropicalis, UniProt A0A8J0T4S7); test: LC-MS and MS/MS of glycine added to tubulin tails; format: biochemical; conditions: labelled compound (13C glycine); co-substrate human microtubules monoglycylated by TTLL8; ATP-dependent; room temperature, 20 min
T1 construct: residues 105-570; N-terminal GST tag cut with 3C protease; Sf9 baculovirus; untagged for mass spectrometry (C-terminal SNAP fusion only for microscopy)
T1 sequence (A0A8J0T4S7 105-570): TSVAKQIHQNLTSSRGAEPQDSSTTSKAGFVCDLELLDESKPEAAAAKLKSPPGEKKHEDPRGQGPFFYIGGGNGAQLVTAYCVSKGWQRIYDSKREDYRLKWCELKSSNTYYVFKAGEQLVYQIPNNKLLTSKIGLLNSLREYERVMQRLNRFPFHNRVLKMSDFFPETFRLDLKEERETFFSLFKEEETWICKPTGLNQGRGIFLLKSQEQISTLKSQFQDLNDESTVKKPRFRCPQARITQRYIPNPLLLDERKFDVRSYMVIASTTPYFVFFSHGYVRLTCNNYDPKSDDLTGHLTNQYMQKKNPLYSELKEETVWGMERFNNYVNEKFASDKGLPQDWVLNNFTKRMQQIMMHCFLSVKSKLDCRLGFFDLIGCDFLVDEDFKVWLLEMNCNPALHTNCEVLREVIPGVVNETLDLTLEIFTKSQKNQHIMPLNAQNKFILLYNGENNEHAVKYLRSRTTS

[2] = target: T2, TTLL8 (Homo sapiens, UniProt A6PVC2); test: LC-MS and MS/MS of glycine added to tubulin tails; format: biochemical; conditions: labelled compound (13C glycine); co-substrate unmodified human microtubules (taxol-stabilised); ATP-dependent; room temperature, 20 min
T2 construct: residues 39-585; N-terminal GST tag cut with 3C protease; Sf9 baculovirus
T2 sequence (A6PVC2 39-585): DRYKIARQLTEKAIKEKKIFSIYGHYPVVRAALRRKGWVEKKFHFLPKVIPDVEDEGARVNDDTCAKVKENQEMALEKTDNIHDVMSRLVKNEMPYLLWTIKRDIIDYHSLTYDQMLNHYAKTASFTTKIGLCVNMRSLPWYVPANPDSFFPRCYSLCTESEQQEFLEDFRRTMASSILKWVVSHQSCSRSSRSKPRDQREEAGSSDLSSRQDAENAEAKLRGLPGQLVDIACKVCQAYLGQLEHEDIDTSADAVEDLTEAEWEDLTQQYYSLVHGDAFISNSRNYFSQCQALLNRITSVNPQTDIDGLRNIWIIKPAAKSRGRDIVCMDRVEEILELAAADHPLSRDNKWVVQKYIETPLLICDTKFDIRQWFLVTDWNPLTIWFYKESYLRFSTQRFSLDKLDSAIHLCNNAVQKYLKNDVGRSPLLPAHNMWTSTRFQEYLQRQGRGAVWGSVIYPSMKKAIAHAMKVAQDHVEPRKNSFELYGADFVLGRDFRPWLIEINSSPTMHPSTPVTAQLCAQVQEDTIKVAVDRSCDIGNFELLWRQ

[3] = target: monoglycylated microtubules (<nG>α ~ 0.8, <nG>β ~ 1.2) (human) (UniProt P68363); test: TIRF microscopy microtubule binding assay; 500 nM TTLL10-SNAP(647) perfused over biotinylated taxol-stabilised microtubules immobilised on neutravidin; binding buffer 60mM KCl, 10mM NaCl, 40mM PIPES pH 6.8, 2mM Tris pH 8.0, 1.5mM MgCl2, 1mM ATP; peak line-scan intensities normalised to microtubule length and to unmodified microtubules in the same chamber
[4] = target: monoglycylated/polyglutamylated microtubules (<nG>α ~ 0.1, <nG>β ~ 0.8; <nE>α ~ 18, <nE>β ~ 4) (human) (UniProt P68363); test: as above
[5] = target: polyglycylated/polyglutamylated microtubules (<nG>α ~ 0.4, <nG>β ~ 1.9, glutamylated by TTLL6) (human) (UniProt P68363); test: as above
[6] = target: monoglycylated microtubules (<nG>α ~ 1.1, <nG>β ~ 2.5) (human) (UniProt P68363); test: as above
[7] = target: monoglycylated microtubules (α + 1.7G, β + 2.0G) (human) (UniProt P68363); test: TIRF microscopy microtubule binding assay; binding curve of TTLL10-SNAP(Alexa647) on microtubules immobilised in neutravidin-coated flow chambers; apparent Kd

Molecule: NCC(=O)O [glycine]
LC-MS and MS/MS of glycine added to tubulin tails [1]: TTLL10 can add glycines to both α- and β-tubulin as long as they were previously monoglycylated | LC-MS and MS/MS of glycine added to tubulin tails [2]: TTLL8 adds glycines to unmodified microtubules on both α- and β-tubulin

fold recruitment against unmodified microtubules [3]: > 6 fold | fold recruitment against the same monoglycylated microtubules without glutamylation [4]: 1.8 fold | fold binding against the same polyglycylated microtubules without glutamylation [5]: 3.2 fold | percent increase in recruitment on addition of more monoglycines (against microtubules with <nG>α ~ 0.8, <nG>β ~ 1.2) [6]: 17% | Kd [7]: 600 nM
B1: Alexa647-labeled TTLL10-SNAP (enzyme)
chain: T1 sequence (A0A8J0T4S7 105-570)
modifications: SNAP-Surface Alexa Fluor 647 dye conjugated to the SNAP tag
